Results from paper PMC10021056 (Nature Communications, 2023).

T1: prefusion Hendra virus (HeV) F protein (Hendra virus, reference strain …)
T1 chain: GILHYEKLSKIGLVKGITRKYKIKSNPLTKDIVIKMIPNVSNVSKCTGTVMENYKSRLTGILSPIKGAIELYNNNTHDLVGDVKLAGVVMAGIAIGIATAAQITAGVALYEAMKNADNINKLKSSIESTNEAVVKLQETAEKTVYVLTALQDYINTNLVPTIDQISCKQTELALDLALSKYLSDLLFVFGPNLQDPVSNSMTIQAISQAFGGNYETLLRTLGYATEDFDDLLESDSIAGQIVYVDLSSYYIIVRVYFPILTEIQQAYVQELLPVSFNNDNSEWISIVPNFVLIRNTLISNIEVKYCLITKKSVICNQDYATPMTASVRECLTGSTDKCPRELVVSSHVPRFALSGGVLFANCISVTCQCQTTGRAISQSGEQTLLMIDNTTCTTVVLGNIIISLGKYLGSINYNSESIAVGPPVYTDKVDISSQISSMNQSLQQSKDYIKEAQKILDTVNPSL

T2: prefusion Hendra virus (HeV) F (Hendra virus, reference strain …, stabilised)
T2 chain: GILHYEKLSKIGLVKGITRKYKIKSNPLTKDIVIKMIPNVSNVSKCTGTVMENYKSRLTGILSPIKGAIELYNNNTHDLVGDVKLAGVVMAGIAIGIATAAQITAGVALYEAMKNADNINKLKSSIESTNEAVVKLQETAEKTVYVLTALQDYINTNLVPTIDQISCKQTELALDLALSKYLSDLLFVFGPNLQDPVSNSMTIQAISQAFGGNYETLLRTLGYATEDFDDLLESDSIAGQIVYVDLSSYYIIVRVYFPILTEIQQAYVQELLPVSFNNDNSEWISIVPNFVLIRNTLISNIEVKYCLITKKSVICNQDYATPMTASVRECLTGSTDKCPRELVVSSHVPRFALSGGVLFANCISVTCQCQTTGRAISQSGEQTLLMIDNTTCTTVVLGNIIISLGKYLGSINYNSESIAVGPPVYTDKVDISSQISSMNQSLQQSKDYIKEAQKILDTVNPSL


Experiments:
[1] = biological target: T1, prefusion Hendra virus (HeV) F protein; experiment: BLI; conditions: both partners purified
[2] = biological target: T2, prefusion Hendra virus (HeV) F; experiment: BLI; conditions: both partners purified

Row | Binder | binding result [1] | binding result [2]
1 | Fab 2B12 (Fab, V domains shown) V domain 1: EVQLVESGGGLVQPKGSLKLSCAASGFIFNTYAMHWVRQAPGKGLEWVARIRSKSSNYATYYADSVKDRFTISRDDSQSMLYLQMNNLKTEDTAMYYCVREGGYYFDYWGQGTTLTFSA V domain 2: DIVMSQSPSSLAVSVGEKVTMSCKSSQSLLHVSNQKNYLAWYQQKPGQSPKLLIYWASTRESGVPDRFTGSGSGTDFTLTISSVKAEDLAVYYCQQYYSYPWPFGGGTKLKSN | binds | 
2 | Fab 2B12 (Fab, V domains shown, recombinant Fab of m9) V domain 1: EVQLVESGGGLVQPKGSLKLSCAASGFIFNTYAMHWVRQAPGKGLEWVARIRSKSSNYATYYADSVKDRFTISRDDSQSMLYLQMNNLKTEDTAMYYCVREGGYYFDYWGQGTTLTFSA V domain 2: DIVMSQSPSSLAVSVGEKVTMSCKSSQSLLHVSNQKNYLAWYQQKPGQSPKLLIYWASTRESGVPDRFTGSGSGTDFTLTISSVKAEDLAVYYCQQYYSYPWPFGGGTKLKSN |  | binds
3 | Fab 1H1 (Fab, V domains shown) VH: VQLQQSGAELMRPGASMKISCKATGYTFSSYWIDWVKQRPGHGLEWIGEILPGSGDTNYNENFKGKAAFTADTSSNTAYMQLTSLTSEDSAVFYCARGGRYHGQGFFDYWGQGTTLTVSS VL: IQMTQSPASLSASVGETVTITCRPSENVHIYLAWYQQKQGKSPQLLVYNAKTLADGVPSRFSGSASGTQFSLKINSLQPEDFGSYYCQHFWSIPYTFGGGTKLEIK | binds | 
4 | Fab 1H1 (Fab, V domains shown, recombinant Fab of m8) VH: VQLQQSGAELMRPGASMKISCKATGYTFSSYWIDWVKQRPGHGLEWIGEILPGSGDTNYNENFKGKAAFTADTSSNTAYMQLTSLTSEDSAVFYCARGGRYHGQGFFDYWGQGTTLTVSS VL: IQMTQSPASLSASVGETVTITCRPSENVHIYLAWYQQKQGKSPQLLVYNAKTLADGVPSRFSGSASGTQFSLKINSLQPEDFGSYYCQHFWSIPYTFGGGTKLEIK |  | binds
5 | Fab 1F2 (Fab, V domains shown) VH: EVQLQQSGPELVKPGVSLKISCKASGYSFTDYTMNWVKQSHGKNLEWIGLINPYIGGTRYNQKFKGKATLTVDKSSSTAYLELLSLTSEDSAVYYCARFSGSSNRAMDYWGQGTSVTVSS VL: DIQMTQSPASLSASVGETVTITCGASENIYGALNWYQRKQGKSPQLLIYGATNLADGMSSRFSGSGSARQYSLKISSLHPDDVATYYCQNVLSIPWTFGGGTKLEIK | binds | 
6 | Fab 1F2 (Fab, V domains shown, recombinant Fab of m12) VH: EVQLQQSGPELVKPGVSLKISCKASGYSFTDYTMNWVKQSHGKNLEWIGLINPYIGGTRYNQKFKGKATLTVDKSSSTAYLELLSLTSEDSAVYYCARFSGSSNRAMDYWGQGTSVTVSS VL: DIQMTQSPASLSASVGETVTITCGASENIYGALNWYQRKQGKSPQLLIYGATNLADGMSSRFSGSGSARQYSLKISSLHPDDVATYYCQNVLSIPWTFGGGTKLEIK |  | binds
7 | Fab 4F6 (Fab, V domains shown) VH: QVQLQQSGAELVKPGASVKLSCKASGYTFTSNWMHWVKQRPGRGLEWIGRIDPNSGGTKYNEKFKSKATLTVDKPSSTAYMQLSSLTSEDSAVYYCARDGHYAYFDVWAPGTTVTVSS VL: DIVMTQSQKFMSTSVGDRVSVTCKASQNVGTTVAWYQQKPGQSPNALIYSASYRYTGVPDRFTGSGSGTDFTLTISNVQSEDLAEYFCQQYNRYPWTFGGGTKLEIK | binds | 
8 | Fab 4F6 (Fab, V domains shown, recombinant Fab of m13) VH: QVQLQQSGAELVKPGASVKLSCKASGYTFTSNWMHWVKQRPGRGLEWIGRIDPNSGGTKYNEKFKSKATLTVDKPSSTAYMQLSSLTSEDSAVYYCARDGHYAYFDVWAPGTTVTVSS VL: DIVMTQSQKFMSTSVGDRVSVTCKASQNVGTTVAWYQQKPGQSPNALIYSASYRYTGVPDRFTGSGSGTDFTLTISNVQSEDLAEYFCQQYNRYPWTFGGGTKLEIK |  | binds
9 | Fab 1A9 (Fab, V domains shown, recombinant Fab of m7) VH: QVQLQQSGAELVRPGTSVKISCKASGYTFTNYWLGWVKQRPGHGLEWIGDIYRGGGYTNYNEKFKGKATLTADTSSSTAYMQLSSLTSEDSAVYFCATRDGYFDYWGQGTTLTVSS VL: DIQMTQSSSSFSVSLGDRTTITCKASEDIYNRLAWFQQKPGNAPRLLISGATSLETGVPSRFSGSGSGKDYTLSITSLQTEDVATYYCQQYWSSPWTFGGGTKLEIK |  | binds
10 | Fab 1H8 (Fab, V domains shown, recombinant Fab of m6) VH: EVQLQQSGPELVKPGASVKISCKASGYSFTGYTMNWVKQSHGKNLEWIGLINPFIGGTRYNQKFKGKATLTVDKSSRTAYMELLSLTSEDSAVYYCAREADYDWYFDVWGAGTTVTVSS VL: DIQMTQTTSSLSASLGDRVTISCRASQDISNYLHWYQQKPDGTVNLLIFYTSRLHSGVPSRFSGSGSGTDYSLTISNLEQEDIATYFCQQGNTLPRTFGGGTKLEIK |  | binds
11 | Fab 2D3 (Fab, V domains shown, recombinant Fab of m5) VH: QVQLKQSGPGLVAPSQSLSITCTVSGFSLTSYALSWVRQPPGKGLEWLGVIWVGGVTNYNSALKSRLTISKDNSKSQVFLKMNSLQSEDTARYYCASRHLSTGAMDYWGQGTSVTVSA VL: DVLMTQSPLSLPVSLGDQASISCRSSQSIVHSNGDTYFEWYLQKPGQSPKLLIYKVSNRFSGVPNRFSGSGSGTDFTLKISRVEAEDLGVYYCFQGSYVPYTFGGGTKLEIK |  | binds
